According to US20210340530A1 (INTELLIA THERAPEUTICS, published 2021):

Tests used:
[1] = molecular target: T1, … (RMF) WT1 peptide pulsed on target cells (HLA-02.01 positive T2 cell line; OCI-AML3); assay: cell-based or functional assay
[2] = molecular target: T2, … (VLD) WT1 peptide pulsed on target cells (HLA-02.01 positive T2 cell line; OCI-AML3); assay: cell-based or functional assay
[3] = molecular target: T3, VLD-Tetramer (pMHC tetramer with WT1 peptide …); assay: flow cytometry, VLD-Tetramer staining of engineered T cells; TRAC + TRBC RNP
T3 construct: Staining reagent; also called VLD (Wilms' tumor antigen) tetramer; TCR specific pMHC tetramer
Protocol: (§1) Four to 12 days after RNP nucleofection, edited T cells (200 ul/200,000 cells) were collected in a 96 well round bottom plate and spun down at 500 g for 5 minutes. Cells were then resuspended in an antibody mixture containing a combination of antibodies targeting CD3, CD4, CD8, CD45RO, CD45RA, CD27, CCR7, CD62L, and/or the TCR specific pMHC tetramer or TCR specific Vbeta chain antibody. The mixture was incubated for 45 minutes at room temperature in the dark. Samples were spun down at 500 g for 5 minutes, cell pellets collected, and resuspended in 1:10,000 DAPI (Biolegend—#422801) in FACS buffer. Flow cytometry was then performed using the cytoflex according to the manufacturer's instructions.
(§2) T cells were evaluated with additional engineered TCRs for the impact of endogenous beta chains on pairing of both the inserted alpha chain and inserted beta chain. The experiment was performed as described herein except tetramer staining was used to measure MFI and the AAV inserts in Table 31 were used for transduction.

[4] = molecular target: T1, … (RMF) WT1 peptide pulsed on target …; assay: cell-based or functional assay; remark: listed apart in the source
[5] = molecular target: T2, … (VLD) WT1 peptide pulsed on target …; assay: cell-based or functional assay; remark: listed apart in the source
[6] = molecular target: T3, VLD-Tetramer (pMHC tetramer with WT1 …); assay: flow cytometry, VLD-Tetramer staining of engineered T cells; TRAC RNP only
Protocol: as §1, §2

[7] = molecular target: T2, … (VLD) WT1 peptide pulsed on target …; assay: cell-based or functional assay; remark: listed apart in the source
[8] = molecular target: T2, … (VLD) WT1 peptide pulsed on target …; assay: cell-based or functional assay; remark: listed apart in the source
[9] = molecular target: T1, … (RMF) WT1 peptide pulsed on target …; assay: cell-based or functional assay; remark: listed apart in the source
[10] = molecular target: T2, … (VLD) WT1 peptide pulsed on target …; assay: cell-based or functional assay; remark: listed apart in the source

B1: TCR-G (WT1-specific T-cell receptor) (TCR, V domains shown)
V domain 1: DQQVKQNSPSLSVQEGRISILNCDYTNSMFDYFLWYKKYPAEGPTFLISISSIKDKNEDGRFTVFLNKSAKHLSLHIVPSQPGDSAVYFCAARGQGNLIFGKGTKLSVKP
V domain 2: EAGVAQSPRYKIIEKRQSVAFWCNPISGHATLYWYQQILGQGPKLLIQFQNNGVVDDSQLPKDRFSAERLKGVDSTLKIQPAKLEDSAVYLCASSLYRGEQYFGPGTRLTVTE
notes: also called AV15-TCR-G
% CD4+ CD107a+; TRAC/TRBC; 50 nM RMF; T2 [1]: 4.67%
% CD8+ CD107a+; TRAC/TRBC; 50 nM RMF; T2 [1]: 2.82%
% CD4+ CD107a+; TRAC/TRBC; 0 nM VLD; T2 [2]: 4.62%
% CD4+ CD107a+; TRAC/TRBC; 0.005 nM VLD; T2 [2]: 5.06%
% CD4+ CD107a+; TRAC/TRBC; 0.05 nM VLD; T2 [2]: 4.23%
% CD4+ CD107a+; TRAC/TRBC; 0.5 nM VLD; T2 [2]: 4.74%
% CD4+ CD107a+; TRAC/TRBC; 5 nM VLD; T2 [2]: 4.44%
% CD4+ CD107a+; TRAC/TRBC; 50 nM VLD; T2 [2]: 4.52%
% CD8+ CD107a+; TRAC/TRBC; 0 nM VLD; T2 [2]: 3.15%
% CD8+ CD107a+; TRAC/TRBC; 0.005 nM VLD; T2 [2]: 12.2%
% CD8+ CD107a+; TRAC/TRBC; 0.05 nM VLD; T2 [2]: 34.2%
% CD8+ CD107a+; TRAC/TRBC; 0.5 nM VLD; T2 [2]: 53.3%
% CD8+ CD107a+; TRAC/TRBC; 5 nM VLD; T2 [2]: 65.8%
% CD8+ CD107a+; TRAC/TRBC; 50 nM VLD; T2 [2]: 73.2%
Mean % Tetramer+ (CD4+) [3]: 85.3%
Mean % Tetramer+ (CD8+) [3]: 81.9%
Mean Tetramer MFI (CD4+) [3]: 251000 MFI
Mean Tetramer MFI (CD8+) [3]: 190000 MFI
% CD4+ TNFa+ IFNg+; TRAC/TRBC; 50 nM RMF; T2 [4]: 2.2%
% CD8+ TNFa+ IFNg+; TRAC/TRBC; 50 nM RMF; T2 [4]: 0.4%
% CD4+ TNFa+ IFNg+; TRAC/TRBC; 0 nM VLD; T2 [5]: 2.1%
% CD4+ TNFa+ IFNg+; TRAC/TRBC; 0.005 nM VLD; T2 [5]: 1.6%
% CD4+ TNFa+ IFNg+; TRAC/TRBC; 0.05 nM VLD; T2 [5]: 0.9%
% CD4+ TNFa+ IFNg+; TRAC/TRBC; 0.5 nM VLD; T2 [5]: 0.6%
% CD4+ TNFa+ IFNg+; TRAC/TRBC; 5 nM VLD; T2 [5]: 0.2%
% CD4+ TNFa+ IFNg+; TRAC/TRBC; 50 nM VLD; T2 [5]: 0.1%
% CD8+ TNFa+ IFNg+; TRAC/TRBC; 0 nM VLD; T2 [5]: 0.4%
% CD8+ TNFa+ IFNg+; TRAC/TRBC; 0.005 nM VLD; T2 [5]: 7.6%
% CD8+ TNFa+ IFNg+; TRAC/TRBC; 0.05 nM VLD; T2 [5]: 28.7%
% CD8+ TNFa+ IFNg+; TRAC/TRBC; 0.5 nM VLD; T2 [5]: 46.5%
% CD8+ TNFa+ IFNg+; TRAC/TRBC; 5 nM VLD; T2 [5]: 63.1%
% CD8+ TNFa+ IFNg+; TRAC/TRBC; 50 nM VLD; T2 [5]: 71.4%
Mean % Tetramer+ (CD4+) [6]: 77.5%
Mean % Tetramer+ (CD8+) [6]: 73.6%
Mean Tetramer MFI (CD4+) [6]: 101000 MFI
Mean Tetramer MFI (CD8+) [6]: 102000 MFI
IL2 release; TRAC only; 0 nM VLD; T2 [7]: 338 pg/mL
IL2 release; TRAC only; 0.005 nM VLD; T2 [7]: 326 pg/mL
IL2 release; TRAC only; 0.05 nM VLD; T2 [7]: 284 pg/mL
IL2 release; TRAC only; 0.5 nM VLD; T2 [7]: 305 pg/mL
IL2 release; TRAC only; 5 nM VLD; T2 [7]: 442 pg/mL
IL2 release; TRAC only; 50 nM VLD; T2 [7]: 1050 pg/mL
IL2 release; TRAC only; 500 nM VLD; T2 [7]: 1570 pg/mL
IL2 release; TRAC/TRBC; 0 nM VLD; T2 [7]: 306 pg/mL
IL2 release; TRAC/TRBC; 0.005 nM VLD; T2 [7]: 196 pg/mL
IL2 release; TRAC/TRBC; 0.05 nM VLD; T2 [7]: 198 pg/mL
IL2 release; TRAC/TRBC; 0.5 nM VLD; T2 [7]: 248 pg/mL
IL2 release; TRAC/TRBC; 5 nM VLD; T2 [7]: 351 pg/mL
IL2 release; TRAC/TRBC; 50 nM VLD; T2 [7]: 764 pg/mL
IL2 release; TRAC/TRBC; 500 nM VLD; T2 [7]: 1200 pg/mL
IFN-gamma release; TRAC/TRBC; 50 nM VLD; T2 [8]: 23600
IFN-gamma release; TRAC/TRBC; 500 nM VLD; T2 [8]: 31600
IFN-gamma release; only TRAC; 50 nM VLD; T2 [8]: 23700
IFN-gamma release; only TRAC; 500 nM VLD; T2 [8]: 27500
Caspase 3/7 integrated intensity; TRAC only; 500 nM RMF; T2 [9]: 4950
Caspase 3/7 integrated intensity; TRAC/TRBC; 500 nM RMF; T2 [9]: 6800
Caspase 3/7 integrated intensity; TRAC only; 0 nM VLD; T2 [10]: 12200
Caspase 3/7 integrated intensity; TRAC only; 0.005 nM VLD; T2 [10]: 21000
Caspase 3/7 integrated intensity; TRAC only; 0.05 nM VLD; T2 [10]: 199000
Caspase 3/7 integrated intensity; TRAC only; 0.5 nM VLD; T2 [10]: 1.01e+06
Caspase 3/7 integrated intensity; TRAC only; 5 nM VLD; T2 [10]: 1.14e+06
Caspase 3/7 integrated intensity; TRAC only; 50 nM VLD; T2 [10]: 1.28e+06
Caspase 3/7 integrated intensity; TRAC only; 500 nM VLD; T2 [10]: 1.31e+06
Caspase 3/7 integrated intensity; TRAC/TRBC; 0 nM VLD; T2 [10]: 12400
Caspase 3/7 integrated intensity; TRAC/TRBC; 0.005 nM VLD; T2 [10]: 21000
Caspase 3/7 integrated intensity; TRAC/TRBC; 0.05 nM VLD; T2 [10]: 311000
Caspase 3/7 integrated intensity; TRAC/TRBC; 0.5 nM VLD; T2 [10]: 964000
Caspase 3/7 integrated intensity; TRAC/TRBC; 5 nM VLD; T2 [10]: 1.26e+06
Caspase 3/7 integrated intensity; TRAC/TRBC; 50 nM VLD; T2 [10]: 1.04e+06
Caspase 3/7 integrated intensity; TRAC/TRBC; 500 nM VLD; T2 [10]: 1.19e+06
